This series has as its target anti-EGFR activatable antibodies comprising substrates 2001, 2006-2010 and 2012.

B1: human matriptase (protein)
chain: VVGGTDADEGEWPWQVSLHALGQGHICGASLISPNWLVSAAHCYIDDRGFRYSDPTQWTAFLGLHDQSQRSAPGVQERRLKRIISHPFFNDFTFDYDIALLELEKPAEYSSMVRPICLPDASHVFPAGKAIWVTGWGHTQYGGTGALILQKGEIRVINQTTCENLLPQQITPRMMCVGFLSGGVDSCQGDSGGPLSSVEADGRIFQAGVVSWGDGCAQRNKPGVYTRLPLFRDWIKENTGV
As for B1, the kcat/Km entry is “a range of kcat/Km values ranging from 6E+02 to 2E+04”.

For the origin of these results see US20210355208.
